Patent US20100189760A1
Each block holds one binder with its values, some of them ahead of it.

Molecular target: neural stem cell surface (cell surface molecule(s) of NSCs, not identified) (rat (adult hippocampus, stated in Example 1))
Assay: flow cytometry, GFP bacterial clone displaying the peptide on NSCs

B2: clone 7C-4 peptide (peptide)
peptide: YMCMSRGDATCDV
% NSCs with Bacteria: 62%

B3: clone 7C-6 peptide (peptide)
peptide: GECFYYVMNTCVW
% NSCs with Bacteria: 61.8%

B5: clone 7C-12 peptide (peptide)
peptide: FWCIRGEYWVCDR
% NSCs with Bacteria: 64.5%

B6: clone 7C-3 peptide (peptide)
peptide: WFCLLGRSAYCVR
% NSCs with Bacteria: 71.9%

B8: clone 7C-21 peptide (peptide)
peptide: WNCIKGSSWACVW
% NSCs with Bacteria: 75.5%

B9: clone 7C-24 peptide (peptide)
peptide: WWCDMRGDSRCSG
% NSCs with Bacteria: 61.7%

B10: clone 7C-19 peptide (peptide)
peptide: WVCNKLGVYACEY
% NSCs with Bacteria: 20.5%

B11: clone 7C-20 peptide (peptide)
peptide: WVCIWERFKSCNE
% NSCs with Bacteria: 65.7%

B12: clone 7C-2 peptide (peptide)
peptide: ESCWYQIMYKCAN
% NSCs with Bacteria: 55.2%

B13: clone 15-50 peptide (peptide)
peptide: GFVLVWSYTCRCWGK
% NSCs with Bacteria: 64.9%

B14: clone 7C-9 peptide (peptide)
peptide: KLCCFDKGYYCMR
% NSCs with Bacteria: 71.3%

B15: clone Co-1 peptide (peptide)
peptide: SLCAAYNRWACIW
% NSCs with Bacteria: 73.8%

B17: clone Co-2 peptide (peptide)
peptide: WSCPKVNQYACFW
% NSCs with Bacteria: 74.8%

B18: clone 7C-22 peptide (peptide)
peptide: WMCSGVQPNACVW
% NSCs with Bacteria: 46.9%

B19: clone 7C-5 peptide (peptide)
peptide: IWCGSRFGCWCKP
% NSCs with Bacteria: 65.6%

B21: clone 7C-1 peptide (peptide)
peptide: WYCFRENKYVCVM
% NSCs with Bacteria: 75.2%

B22: clone 15-52 peptide (peptide)
peptide: ESGLKVMCMKYYCMA
% NSCs with Bacteria: 63.3%

B23: clone Co-5 peptide (peptide)
peptide: WDCGKKNAWMCIW
% NSCs with Bacteria: 67.4%

B25: clone 15-2 peptide (peptide)
peptide: DHKFGLVMLNKYAYAG
% NSCs with Bacteria: 75.9%

B26: clone Co-8 peptide (peptide)
peptide: WTWESAFAGRWEVGD
% NSCs with Bacteria: 61.7%

B27: clone 15-59 peptide (peptide)
peptide: DLCTYGHLWLGNGRP
% NSCs with Bacteria: 22.5%

B28: clone 15-6 peptide (peptide)
peptide: LEDAMGWALSWGHIW
% NSCs with Bacteria: 70.2%

B29: clone 7C-17 peptide (peptide)
peptide: WLCKGSNKYMCEW
% NSCs with Bacteria: 67.8%

B32: clone 7C-15 peptide (peptide)
peptide: QCCQLRGDAVCNC
% NSCs with Bacteria: 54%

B34: clone 7C-11 peptide (peptide)
peptide: LCCESYICALCHY
% NSCs with Bacteria: 37.7%

B35: clone 7C-8 peptide (peptide)
peptide: WLCLDKNCMACVW
% NSCs with Bacteria: 68.8%

B36: clone 15-32 peptide (peptide)
peptide: RRELVRMTDWVWVSG
% NSCs with Bacteria: 70.4%

B38: clone 7C-14 peptide (peptide)
peptide: LNCAMYNACIW
% NSCs with Bacteria: 54.5%

B40: clone Co-3 peptide (peptide)
peptide: GGCRWYAKWVCVW
% NSCs with Bacteria: 75.7%

B41: clone 15-16 peptide (peptide)
peptide: SDWSVLLSCERWYCI
% NSCs with Bacteria: 63.9%

B43: clone 7C-7 peptide (peptide)
peptide: LECTERGDFNCFV
% NSCs with Bacteria: 47.8%

Continued, values first:

% NSCs with Bacteria: 75.6%
B1: clone Co-22 peptide (peptide)
peptide: VWCGMFGKRRCVT

% NSCs with Bacteria: 70.9%
B4: clone Co-15 peptide (peptide)
peptide: WVCNDLIHHFCVW

% NSCs with Bacteria: 75.7%
B7: clone Co-9 peptide (peptide)
peptide: SKCWGWTPYYCVA

% NSCs with Bacteria: 71.9%
B16: clone Co-16 peptide (peptide)
peptide: QGCAFVTYWACIF

% NSCs with Bacteria: 72.1%
B20: clone Co-17 peptide (peptide)
peptide: WECAEESKFWCVF

% NSCs with Bacteria: 71.3%
B24: clone Co-18 peptide (peptide)
peptide: WWCKKPEYWYCIW

% NSCs with Bacteria: 74.3%
B30: clone Co-12 peptide (peptide)
peptide: WVCLWRHRGDCSI

% NSCs with Bacteria: 64.8%
B31: clone Co-13 peptide (peptide)
peptide: STCSWVSSYVCIM

% NSCs with Bacteria: 72.7%
B33: clone Co-11 peptide (peptide)
peptide: LECPGESKYYCIY

% NSCs with Bacteria: 70.9%
B37: clone Co-20 peptide (peptide)
peptide: RLCCWKTQYFCEI

% NSCs with Bacteria: 72.7%
B39: clone Co-10 peptide (peptide)
peptide: WRCLGDGYHACVR

% NSCs with Bacteria: 70.9%
B42: clone Co-21 peptide (peptide)
peptide: MYCERDSKYWCIH

% NSCs with Bacteria: 71.1%
B44: clone Co-23 peptide (peptide)
peptide: LVCNRQNPWVCYI

% NSCs with Bacteria: 50.6%
B45: clone Co-19 peptide (peptide)
peptide: WQCGRFWCIHCLW
